# Measured values: article PMC7818228, “Laser‐facilitated epicutaneous immunotherapy with hypoallergenic beta‐glucan neoglycoconjugates suppresses lung inflammation and avoids local side effects in a mouse model of allergic asthma” (Allergy, 2020)
# B1: ovalbumin (EndoFit Ovalbumin, endotoxin-free) (natural protein, UniProt P01012 1-386, looked up)
# chain: MGSIGAASMEFCFDVFKELKVHHANENIFYCPIAIMSALAMVYLGAKDSTRTQINKVVRFDKLPGFGDSIEAQCGTSVNVHSSLRDILNQITKPNDVYSFSLASRLYAEERYPILPEYLQCVKELYRGGLEPINFQTAADQARELINSWVESQTNGIIRNVLQPSSVDSQTAMVLVNAIVFKGLWEKAFKDEDTQAMPFRVTEQESKPVQMMYQIGLFRVASMASEKMKILELPFASGTMSMLVLLPDEVSGLEQLESIINFEKLTEWTSSNVMEERKIKVYLPRMKMEEKYNLTSVLMAMGITDVFSSSANLSGISSAESLKISQAVHAAHAEINEAGREVVGSAEAGVDAASVSEEFRADHPFLFCIKHIATNAVLFFGRCVSP
# notes: ovalbumin (OVA), endotoxin-free commercial preparation; crystal structure 1OVA named for it; Commercial ovalbumin; also called unconjugated OVA; soluble OVA; source: bought: InvivoGen (EndoFit Ovalbumin)
# Legend:
# Assay in all cases: MST; in solution; Monolith NT.115 RED; Hill fit model for multiple binding; apparent dissociation constants (Kdapp); three independent binding experiments
# [1] = biological target: soluble murine Fc-Dectin-1a receptor (mouse) (UniProt Q6QLQ4)
# soluble receptor TLR5 [2] = biological target: soluble receptor TLR5 (UniProt Q9JLF7)
# soluble receptor TLR5 [3] = biological target: soluble receptor TLR5 (UniProt Q9JLF7 27-641, Supplement states soluble human TLR5 fused to an IgG1 Fc domain (Fc carrier left out; 2 copies assumed from Fc dimerisation); limits are the UniProt extracellular domain by convention; lysine/amine la); conditions: both partners purified
# Chain of soluble receptor TLR5 (UniProt Q9JLF7 27-641, Supplement states soluble human TLR5 fused to an IgG1 Fc domain (Fc carrier left out; 2 copies assumed from Fc dimerisation); limits are the UniProt extracellular domain by convention; lysine/amine la) (Q9JLF7 27-641): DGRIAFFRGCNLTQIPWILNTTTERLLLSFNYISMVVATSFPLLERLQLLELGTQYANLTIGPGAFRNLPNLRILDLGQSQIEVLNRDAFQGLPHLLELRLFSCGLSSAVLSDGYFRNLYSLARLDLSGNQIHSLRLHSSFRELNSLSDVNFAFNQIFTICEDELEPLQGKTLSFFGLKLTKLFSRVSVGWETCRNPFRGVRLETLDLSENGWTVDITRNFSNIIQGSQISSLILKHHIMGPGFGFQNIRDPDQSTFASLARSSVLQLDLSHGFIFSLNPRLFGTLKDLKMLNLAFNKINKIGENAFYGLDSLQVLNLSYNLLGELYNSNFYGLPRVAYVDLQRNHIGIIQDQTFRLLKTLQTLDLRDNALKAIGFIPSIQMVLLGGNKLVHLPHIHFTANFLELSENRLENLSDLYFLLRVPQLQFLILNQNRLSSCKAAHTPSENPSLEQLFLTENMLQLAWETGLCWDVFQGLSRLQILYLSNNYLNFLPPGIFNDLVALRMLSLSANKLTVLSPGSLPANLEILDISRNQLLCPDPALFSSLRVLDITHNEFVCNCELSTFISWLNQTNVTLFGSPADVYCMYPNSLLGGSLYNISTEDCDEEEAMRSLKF
# Chain of soluble murine Fc-Dectin-1a receptor (mouse) (Q6QLQ4 71-244): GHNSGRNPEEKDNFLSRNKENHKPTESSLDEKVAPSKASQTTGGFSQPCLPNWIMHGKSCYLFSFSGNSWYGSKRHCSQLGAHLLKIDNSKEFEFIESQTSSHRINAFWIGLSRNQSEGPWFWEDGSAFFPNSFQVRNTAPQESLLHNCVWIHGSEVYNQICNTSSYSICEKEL
# Chain of soluble receptor TLR5 (UniProt Q9JLF7) (Q9JLF7 27-641): as the sequence (Q9JLF7 27-641) above
Molecule,Kd [1],Kdapp counted on the laminarin concentration (carbohydrate to protein ratio 0.6) [1],"Kdapp counted on the laminarin concentration (carbohydrate to protein ratio 2.5, anthrone method) [1]",Kdapp (concentration basis not stated; compared with the 0.99 µM for Dectin-1) (soluble receptor TLR5 [2]),Kd (soluble receptor TLR5 [3])
laminarin-ovalbumin neoglycoconjugate (LamOVA) (from UniProt P01012 1-386),170 nM,0.99 µM,4.22 µM,6 µM,–
B1,5330 nM,–,–,–,800 ± 300 nM
